For orientation: EC50 means the concentration that produces a half-maximal response.

This is an account of results in patent US20250057968A1, “ANTI-DLL3 ANTIBODY AND PHARMACEUTICAL USE THEREOF, AND ANTIBODY-DRUG CONJUGATE CONTAINING ANTI-DLL3 ANTIBODY” (Jiangsu Hengrui Pharmaceuticals Co., Ltd., priority 2021, published 2025).

The target of test [1] is T1, Human DLL3 full-length protein on cells (human, UniProt Q9NYJ7 27-618).
T1 construct: H1184 and DMS53 express DLL3 themselves; The cell line is named under assay; also called H1184 cells; DLL3/H82
T1 sequence: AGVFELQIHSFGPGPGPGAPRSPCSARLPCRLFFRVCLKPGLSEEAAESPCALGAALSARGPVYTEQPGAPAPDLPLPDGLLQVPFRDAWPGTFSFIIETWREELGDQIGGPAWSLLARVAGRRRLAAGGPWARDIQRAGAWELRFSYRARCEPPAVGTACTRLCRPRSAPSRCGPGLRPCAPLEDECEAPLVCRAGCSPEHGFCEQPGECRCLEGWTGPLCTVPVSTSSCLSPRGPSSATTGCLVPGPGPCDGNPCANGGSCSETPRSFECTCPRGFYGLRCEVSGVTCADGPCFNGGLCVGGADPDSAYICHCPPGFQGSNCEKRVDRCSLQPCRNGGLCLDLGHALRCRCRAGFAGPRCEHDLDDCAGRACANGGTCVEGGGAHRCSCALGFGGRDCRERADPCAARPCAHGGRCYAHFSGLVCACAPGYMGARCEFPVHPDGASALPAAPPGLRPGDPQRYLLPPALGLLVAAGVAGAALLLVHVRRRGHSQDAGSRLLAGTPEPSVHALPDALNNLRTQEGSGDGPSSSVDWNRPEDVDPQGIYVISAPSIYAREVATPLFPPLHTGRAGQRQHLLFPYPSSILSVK
Kind of test: FACS on H1184 cells. As to the method: (§1) Cells of the DLL3-expressing small cell lung cancer cell lines H1184 (ATCC, Cat. No. CRL-5858), DLL3/H82, cynoDLL3/CHO-s, and RatDLL3/CHO-s were suspended at 1×10^6/mL in FACS buffer (1% BSA+pH 7.4 PBS), and the cell suspensions were added to a 96-well round-bottom plate (Corning, 3795) at 100 μL/well. The plate was centrifuged at 300 g for 5 min, and the supernatant was removed. Different concentrations of test antibodies were added at 100 μL/well. The plate was incubated in the dark in a refrigerator at 4° C. for 1 h. After 3 washes by centrifugation at 300 g, working concentrations of APC anti-human IgG Fc (BioLegend, 410712) or PE F(ab′)2-goat anti-human IgG (invitrogen, H10104) were added. The plate was incubated in the dark in a refrigerator at 4° C. for 40 min. After 3 washes by centrifugation at 300 g, the geometric mean fluorescence intensity was measured on an Invitrogen flow cytometer, and the EC50 values of the antibodies in binding to DLL3-expressing cells were calculated.

For test [2], the target named is T2, human DLL3 (Homo sapiens, UniProt Q9NYJ7).
T2 construct: purchased ACRO DLL3-H52H4
T2 sequence (Q9NYJ7 27-492 limits assumed): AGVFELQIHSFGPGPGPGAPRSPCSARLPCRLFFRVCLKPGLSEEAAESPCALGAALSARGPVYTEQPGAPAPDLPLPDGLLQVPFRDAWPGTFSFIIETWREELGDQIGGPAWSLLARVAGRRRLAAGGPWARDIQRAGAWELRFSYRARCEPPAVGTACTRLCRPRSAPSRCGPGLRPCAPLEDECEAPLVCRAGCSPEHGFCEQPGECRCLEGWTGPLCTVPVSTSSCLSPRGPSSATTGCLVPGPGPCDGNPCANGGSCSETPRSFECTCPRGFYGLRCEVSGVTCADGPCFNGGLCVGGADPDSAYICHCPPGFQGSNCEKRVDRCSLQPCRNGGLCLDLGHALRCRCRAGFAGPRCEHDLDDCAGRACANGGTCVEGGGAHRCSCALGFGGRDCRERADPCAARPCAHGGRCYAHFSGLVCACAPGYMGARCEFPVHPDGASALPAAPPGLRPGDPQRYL
Put plainly: Biacore antibody affinity assay, human DLL3. The test is classed as binding. The text has this:
Test antibodies were affinity-captured with a Protein A biosensor chip (Cat. #29127556, Cytiva) for 18 seconds, and then the antigens human DLL3 (ACRO, DLL3-H52H4), cynomolgus monkey DLL3 (KACTUS, DLL-RM103), and mouse DLL3 (KACTUS, DLL-MM103) were allowed to flow over the surface of the chip for 180 seconds, followed by 600 seconds of dissociation. Reaction signals were detected in real time using a Biacore 8K (Cytiva) instrument to obtain association and dissociation curves. After the dissociation in each experimental cycle, the biosensor chip was washed and regenerated with a 10 mM glycine-hydrochloric acid solution (pH 1.5) (Cat. #BR-1003-54, Cytiva). A 1:1 model was fit to the data. The results are shown in Table 12-1, Table 12-2, and Table 12-3.
On the technique in general: In SPR one partner is held on a chip, and binding of the other changes the refractive index at the surface.

Test [3] deals with T1, Human DLL3 full-length protein on cells. Kind of test: cell-based or functional assay.
The target is the same in test [4]. Put plainly: cell-based or functional assay. The source holds these as a separate data set.
The target of test [5] is T3, Rat DLL3 full-length protein on CHO-s cells (rat, UniProt O88671 33-589).
T3 construct: also called RatDLL3/CHO-s; ratDLL3/CHO-s
T3 sequence: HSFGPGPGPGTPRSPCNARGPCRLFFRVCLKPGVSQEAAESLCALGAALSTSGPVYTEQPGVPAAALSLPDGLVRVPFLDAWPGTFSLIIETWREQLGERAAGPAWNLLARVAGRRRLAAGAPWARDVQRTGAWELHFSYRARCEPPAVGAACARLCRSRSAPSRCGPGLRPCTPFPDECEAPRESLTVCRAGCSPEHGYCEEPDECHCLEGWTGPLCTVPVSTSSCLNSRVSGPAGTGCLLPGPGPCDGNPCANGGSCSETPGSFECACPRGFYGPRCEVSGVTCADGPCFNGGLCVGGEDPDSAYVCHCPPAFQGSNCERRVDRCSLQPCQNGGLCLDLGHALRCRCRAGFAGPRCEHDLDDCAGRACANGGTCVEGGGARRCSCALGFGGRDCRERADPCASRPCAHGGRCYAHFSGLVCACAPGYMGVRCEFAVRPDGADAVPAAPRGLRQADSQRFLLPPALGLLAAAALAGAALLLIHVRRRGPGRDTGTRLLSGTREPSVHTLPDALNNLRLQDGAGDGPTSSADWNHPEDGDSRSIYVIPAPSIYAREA
Kind of test: FACS on RatDLL3/CHO-s cells. As to the method: as §1

Test [6] has as its target T4, Cynomolgus monkey DLL3 full-length protein on CHO-s cells (cynomolgus monkey, UniProt Q9NYJ7 27-618 (human entry)).
T4 construct: also called cynoDLL3/CHO-s
T4 chain: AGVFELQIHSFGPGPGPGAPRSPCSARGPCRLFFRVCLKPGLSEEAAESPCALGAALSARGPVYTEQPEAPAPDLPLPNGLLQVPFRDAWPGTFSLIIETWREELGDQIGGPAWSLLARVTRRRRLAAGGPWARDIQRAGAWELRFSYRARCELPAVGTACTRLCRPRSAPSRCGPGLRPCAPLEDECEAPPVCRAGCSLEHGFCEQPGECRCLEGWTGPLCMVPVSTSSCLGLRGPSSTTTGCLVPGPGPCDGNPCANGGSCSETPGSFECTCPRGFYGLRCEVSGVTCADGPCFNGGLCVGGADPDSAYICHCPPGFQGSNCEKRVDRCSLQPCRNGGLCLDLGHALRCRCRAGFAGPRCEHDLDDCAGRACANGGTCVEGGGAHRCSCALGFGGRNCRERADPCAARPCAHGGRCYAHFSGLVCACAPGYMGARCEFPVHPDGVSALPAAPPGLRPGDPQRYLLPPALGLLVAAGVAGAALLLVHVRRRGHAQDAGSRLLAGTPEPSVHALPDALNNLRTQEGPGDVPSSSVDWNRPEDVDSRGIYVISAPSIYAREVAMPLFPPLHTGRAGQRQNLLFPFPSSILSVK
Put plainly: FACS on cynoDLL3/CHO-s cells. How it is done:
as §1

Test [7] concerns the target T5, hDLL3(ECD)-strep twin, biotinylated (human, UniProt Q9NYJ7 27-492, biotinylated (site not stated)).
T5 construct: also called Biotinylated DLL3 antigen; Biotinylated DLL3-Strep
Kind of test: competition ELISA: BI-764532 coated on the plate (1 µg/mL), biotinylated DLL3-Strep (0.1 µg/mL) with soluble BI-764532 as competitor, streptavidin-peroxidase detection, OD450. How it is done:
The plate was washed 3 times with 250 μL of PBST solution per well. The plate was blocked with 250 μL of 5% milk per well at 37° C. for 2 h. The plate was washed 3 times with 250 μL of PBST solution per well. […] The plate was washed 6 times with 250 μL of PBST solution per well. […] The plate was washed 6 times with 250 μL of PBST solution per well. TMB (KPL, 5120-0077) substrate solution was added at 100 μL/well, and color development was allowed at room temperature for 5-10 min.
Background: An ELISA detects its analyte on a solid surface through an enzyme-linked reagent.

B1: hAb6L4H6 (antibody, human IgG1, kappa, V domains shown)
VH: EVQLVQSGSELKKPGASVKVSCKASGYTFTDYYMNWVRQAPGQGLEWMGIINPYSGVTIYNHKFKGRFVLSVDKSSNTAYLQISSLKAEDTAVYYCARQDSLLDYAMDYWGQGTTVTVSS
VL: DIQMTQSPSSLSASVGDRVTITCHASQGISGNMGWLQQKPGKAPKGLIYHGANLEDGVPSRFSGSGSGADYTLTISSLQPEDFADYYCVQYAQFPYTFGGGTKVEIKR
On to B1, for which, in test [1], a half-maximal response (EC50) required 0.17 nM and the Emax came to 2000.

B2: hAb6L4H13: humanized antibody of mAb6: hAb6VH13 (SEQ ID NO: 44) + hAb6VL4 (SEQ ID NO: 48), constant regions SEQ ID NO: 28/29 (antibody, V domains shown)
VH: EVQLVQSGSELKKPGASVKVSCKASGYTFTDYYMNWVKQAPGQGLEWMGIINPYSGVTIYNHKFKGRFALSVDKSSNTAYLQISSLKAEDTAVYYCARQDSLLDYAMDYWGQGTTVTVSS
VL: DIQMTQSPSSLSASVGDRVTITCHASQGISGNMGWLQQKPGKAPKGLIYHGANLEDGVPSRFSGSGSGADYTLTISSLQPEDFADYYCVQYAQFPYTFGGGTKVEIK
modifications: constant regions SEQ ID 28/29; hAb6VH13; hAb6 VL4
For B2, in test [2], the “ka” value stood at 2.16e+06 M⁻¹ s⁻¹ and the “kd” value came to 0.000695 s⁻¹.

B3: ADC-2 (antibody, human IgG1, kappa, V domains shown)
VH: EVQLVESGGGLVKPGGSLRLSCAASGFTFSDSGMHWIRQAPGKGLEWVSYISSGSSTIHYADTVKGRFTISRDNAKNSLYLQMNSLRAEDTAVYYCASPLYYYGRSYNAVAYWGQGTTVTVSS
VL: DIQMTQSPSSLSASVGDRVTITCHASQNINVWLSWYQQKPGKVPKLLIYKASDLHTGVPSRFSGSGSGTDFTLTISSLQPEDVATYYCQQGQSYPLTFGGGTKVEIKR
modifications: linker-drug L-9 conjugated after TCEP reduction; sites not stated; linker-drug L-9 (ecteinascidin derivative) conjugated after TCEP reduction; sites not stated; DAR n=3.72-4.88 for the whole antibody
Regarding B3, in test [3], the “IC50 (nM), killing of DMS53 (+) cells” value amounted to 13.1 nM and the “IC50 (nM), killing of H1184 (+++) cells” value turned out to be 0.11 nM.

B4: BI-764532 (antibody, human IgG1, kappa, V domains shown)
VH: QVQLVQSGAEVKKPGASVKVSCKASGYTFTSYYVHWVRQAPGQGLEWMVIINPGGGTTSYAQKFLGRVTMTRDTSTNTVYMELKSLRSEDTAVYYCARGEAVTGNYFYYGMDVWGQGTTVTVSS
VL: DIQMTQSPSAMSASVGDRVTITCRASQGISNYLVWFQQKPGKAPKRLIYAVSSLYSGVPSRFSGSGSGTEFTLTISSLQPEDFATYYCLQHDSYPYTFGQGTKLEIKR
notes: also called positive control molecule
In test [1], B4 returned an EC50 of 3.94 nM and an Emax of 1620. Also, in test [4], the “IC50 (nM), cell killing caused by endocytosis of antibodies (DT3C, DMS53/DLL3 cells)” value worked out at 3.27 nM and the “Imax, cell killing caused by endocytosis of antibodies (DT3C, DMS53/DLL3 cells)” value is 86.5. Moreover, in test [5], the binding result was “no binding”. In test [6], this molecule came in with an EC50 of 3.42 nM and an Emax of 963. Besides, in test [7], the “IC50 (read off the curve)” value was about 0.06 mg/L.

B5: M6CHI (antibody, human IgG1, kappa, V domains shown)
VH: EVQLQQSGPVLVKPGASVKMSCKASGYTFTDYYMNWVKQSHGKSLEWIGIINPYSGVTIYNHKFKGKATLTVDKSSNTAYMELNSLTSEDSAVYYCARQDSLLDYAMDYWGQGTSVTVSS
VL: DILMTQSPSSMSVSLGDTVSITCHASQGISGNMGWLQQKPGKSFKGLIYHGANLEDGVPSRFSGSGSGADYSLTISSLESEDFADYYCVQYAQFPYTFGGGTKLEIKR
notes: murine variable regions on human IgG1 / kappa constant regions; also called chimeric antibody of mAb6
Regarding B5, in test [1], the EC50 amounted to 0.14 nM and the Emax amounted to 3370.
